Measured values as given in patent US8969060B2, “Modified glucose dehydrogenase” (Ikeda Food Research Co., Ltd., priority 2011, dated 2015).
Substitutions are numbered along the chain they refer to. In names and notes the source's numbering stands. Several values for one entry are separate records, joined by “and”; a condition that tells them apart may be missing. Equal values may be shown once.

B1: G352M: modified GLD: SEQ ID NO: 1 with substitution G352M (protein, listed as Aspergillus terreus)
chain: MLGKLSFLSALSLAVAAPLSNSTSAKYDYIVIGGGTSGLAVANRLSEDPNVNVLILEAGGSVWNNPNVTNVDGYGLAFGSDIDWQYQSVNQPYGGNLSQVLRAGKALGGTSTINGMAYTRAEDVQIDAWETIGNTGWTWKNLFPYYRKSENFTVPTKSQTSLGASYEAGAHGHEGPLDVAFTQIESNNLTTYLNRTFQGMGLPWTEDVNGGKMRGFNLYPSTVNLEEYVREDAARAYYWPYKSRPNLHVLLNTFANRIVWDGEAHDGHITASGVEITSRNGTVRVINAEKEVIVSAGALKSPAILELSGIGNPSVLDKHNIPVKVNLPTVGENLQDQVNSHMDASGNTSISMTKAVSYPDVYDVFGDEAESVAKQIRANLKQYAADTAKANGNIMKAADLERLFEVQYDLIFKGRVPIAEVLNYPGSATSVFAEFWALLPFARGSVHIGSSNPAEFPVINPNYFMLDWDAKSYVAVAKYIRRSFESYPLSSIVKESTPGYDVIPRNASEQSWKEWVFDKNYRSNFHPVGTAAMMPREIGGVVDERLNVYGTTNVRVVDASVLPFQVCGHLVSTLYAVAERAADLIKADAGRR
modifications: SIGNAL (1)..(19)
B2: K354F: modified GLD: SEQ ID NO: 1 with substitution K354F (protein, listed as Aspergillus terreus)
chain: B1 chain with M352G, K354F
modifications: SIGNAL (1)..(19)
B3: K354G: modified GLD: SEQ ID NO: 1 with substitution K354G (protein, listed as Aspergillus terreus)
chain: B1 chain with M352G, K354G
modifications: SIGNAL (1)..(19)
B4: G352P: modified GLD: SEQ ID NO: 1 with substitution G352P (protein, listed as Aspergillus terreus)
chain: B1 chain with M352P
modifications: SIGNAL (1)..(19)
B5: K354M: modified GLD: SEQ ID NO: 1 with substitution K354M (protein, listed as Aspergillus terreus)
chain: B1 chain with M352G, K354M
modifications: SIGNAL (1)..(19)
B6: K354P: modified GLD: SEQ ID NO: 1 with substitution K354P (protein, listed as Aspergillus terreus)
chain: B1 chain with M352G, K354P
modifications: SIGNAL (1)..(19)
B7: K354C: modified GLD: SEQ ID NO: 1 with substitution K354C (protein, listed as Aspergillus terreus)
chain: B1 chain with M352G, K354C
modifications: SIGNAL (1)..(19)
B8: K354Q: modified GLD: SEQ ID NO: 1 with substitution K354Q (protein, listed as Aspergillus terreus)
chain: B1 chain with M352G, K354Q
modifications: SIGNAL (1)..(19)
B9: K354S: modified GLD: SEQ ID NO: 1 with substitution K354S (protein, listed as Aspergillus terreus)
chain: B1 chain with M352G, K354S
modifications: SIGNAL (1)..(19)
B10: G352T: modified GLD: SEQ ID NO: 1 with substitution G352T (protein, listed as Aspergillus terreus)
chain: B1 chain with M352T
modifications: SIGNAL (1)..(19)
B11: G352V: modified GLD: SEQ ID NO: 1 with substitution G352V (protein, listed as Aspergillus terreus)
chain: B1 chain with M352V
modifications: SIGNAL (1)..(19)
B12: G352Q: modified GLD: SEQ ID NO: 1 with substitution G352Q (protein, listed as Aspergillus terreus)
chain: B1 chain with M352Q
modifications: SIGNAL (1)..(19)
B13: Y424D: modified GLD: SEQ ID NO: 1 with substitution Y424D (protein, listed as Aspergillus terreus)
chain: B1 chain with M352G, Y424D
modifications: SIGNAL (1)..(19)
B14: Y424C: modified GLD: SEQ ID NO: 1 with substitution Y424C (protein, listed as Aspergillus terreus)
chain: B1 chain with M352G, Y424C
modifications: SIGNAL (1)..(19)
B15: G352S: modified GLD: SEQ ID NO: 1 with substitution G352S (protein, listed as Aspergillus terreus)
chain: B1 chain with M352S
modifications: SIGNAL (1)..(19)
B16: K354Y: modified GLD: SEQ ID NO: 1 with substitution K354Y (protein, listed as Aspergillus terreus)
chain: B1 chain with M352G, K354Y
modifications: SIGNAL (1)..(19)
B17: G352N: modified GLD: SEQ ID NO: 1 with substitution G352N (protein, listed as Aspergillus terreus)
chain: B1 chain with M352N
modifications: SIGNAL (1)..(19)
B18: K354R: modified GLD: SEQ ID NO: 1 with substitution K354R (protein, listed as Aspergillus terreus)
chain: B1 chain with M352G, K354R
modifications: SIGNAL (1)..(19)
B19: K354A: modified GLD: SEQ ID NO: 1 with substitution K354A (protein, listed as Aspergillus terreus)
chain: B1 chain with M352G, K354A
modifications: SIGNAL (1)..(19)
B20: K354H: modified GLD: SEQ ID NO: 1 with substitution K354H (protein, listed as Aspergillus terreus)
chain: B1 chain with M352G, K354H
modifications: SIGNAL (1)..(19)
B21: G352W: modified GLD: SEQ ID NO: 1 with substitution G352W (protein, listed as Aspergillus terreus)
chain: B1 chain with M352W
modifications: SIGNAL (1)..(19)
B22: K354E: modified GLD: SEQ ID NO: 1 with substitution K354E (protein, listed as Aspergillus terreus)
chain: B1 chain with M352G, K354E
modifications: SIGNAL (1)..(19)
B23: G352R: modified GLD: SEQ ID NO: 1 with substitution G352R (protein, listed as Aspergillus terreus)
chain: B1 chain with M352R
modifications: SIGNAL (1)..(19)
B24: K354D: modified GLD: SEQ ID NO: 1 with substitution K354D (protein, listed as Aspergillus terreus)
chain: B1 chain with M352G, K354D
modifications: SIGNAL (1)..(19)
B25: G352Y: modified GLD: SEQ ID NO: 1 with substitution G352Y (protein, listed as Aspergillus terreus)
chain: B1 chain with M352Y
modifications: SIGNAL (1)..(19)
B26: K354N: modified GLD: SEQ ID NO: 1 with substitution K354N (protein, listed as Aspergillus terreus)
chain: B1 chain with M352G, K354N
modifications: SIGNAL (1)..(19)

How the values were obtained:
[1] = Relative enzymatic activity of GLD (DCIP/1-m-PMS, plate reader, yeast culture supernatant) with proflavin hydrochloride present; format: biochemical; conditions: site-specific mutants, inhibitor final concentration 1 mM
Procedure, shortened: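 Culture supernatant diluted and mixed with reagent of phosphate buffer pH 7.0, 1.0 M D-glucose, 3 mM DCIP, 3 mM 1-m-PMS and methanol (0.1:1:0.14:0.2:0.06). DCIP absorbance decrease at 600 nm followed; proflavin hydrochloride in methanol replaced methanol at 1 mM final. Activity expressed as % of inhibitor-free blank.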

[2] = Relative enzymatic activity of GLD (DCIP/1-m-PMS, plate reader, yeast culture supernatant) with 1,10-phenanthroline present; format: biochemical; conditions: site-specific mutants, inhibitor final concentration 1 mM
Procedure, shortened: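 Inhibitor at 1 mM final substitutes for the methanol in the reagent, and the sample rate is expressed as % of the inhibitor-free blank. Rates come from ΔA600/min of DCIP with glucose and 1-m-PMS at pH 7.0, using supernatants of YPD-grown yeast clones (24 h, 30° C.).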

Molecule	Relative Activity [%] Proflavin hydrochloride [1]	Relative Activity [%] 1,10-Phenanthroline [2]
B1	45.7%	74.7%
B2	16.0%	47.8%
B3	23.0%	60.8%
B4	49.1%	89.8%
B5	10.7%	53.5%
B6	16.7%	64.3%
B7	14.4%	62.6%
B8	12.5%	71.4%
B9	21.3%	71.6%
B10	44.1%	85.4%
B11	41.6%	87.0%
B12	56.4%	90.4%
B13	37.2%	87.1%
B14	45.9%	73.7%
B15	38.7%	62.9%
B16	15.1%	56.0%
B17	55.8%	80.5%
B18	12.6%	64.4%
B19	8.9%	66.2%
B20	11.1% and 11.6%	52.6% and 51.0%
B21	48.1%	81.2%
B22	20.7%	60.0%
B23	68.1%	80.3%
B24	11.6%	70.8%
B25	52.8%	92.4%
B26	15.1%	61.9%
